Measured values taken from patent US20250340902A1, “GENE THERAPY FOR BVES-RELATED DISORDERS” (OHIO STATE INNOVATION FOUNDATION, priority 2022, published 2025).

How the values were obtained:
[1] = molecular target: ATP-binding cassette sub-family F member 1 (Mus musculus) (UniProt Q6P542); experiment: anti-HA co-IP from muscle, MS; CTRL 0
[2] = molecular target: ATP-binding cassette sub-family F member 2 (Mus musculus) (UniProt Q99LE6); experiment: anti-HA co-IP from muscle, MS; CTRL 0
[3] = molecular target: Dual specificity mitogen-activated protein kinase kinase 3 (Mus musculus) (UniProt O09110); experiment: anti-HA co-IP from muscle, MS; CTRL 0
[4] = molecular target: Glypican-4 (Mus musculus) (UniProt P51655); experiment: anti-HA co-IP from muscle, MS; CTRL 0
[5] = molecular target: Medium-chain specific acyl-CoA dehydrogenase, mitochondrial (Mus musculus) (UniProt P45952); experiment: anti-HA co-IP from muscle, MS; CTRL 0
[6] = molecular target: Nuclear mitotic apparatus protein 1 (Mus musculus) (UniProt E9Q7G0); experiment: anti-HA co-IP from muscle, MS; CTRL 0
[7] = molecular target: Platelet glycoprotein 4 (Mus musculus) (UniProt Q08857); experiment: anti-HA co-IP from muscle, MS; CTRL 0
[8] = molecular target: Probable ubiquitin carboxyl-terminal hydrolase FAF-X (Mus musculus) (UniProt P70398); experiment: anti-HA co-IP from muscle, MS; CTRL 0
[9] = molecular target: Ribosomal protein S6 kinase alpha-2 (Mus musculus) (UniProt Q9WUT3); experiment: anti-HA co-IP from muscle, MS; CTRL 0
[10] = molecular target: Voltage-dependent L-type calcium channel subunit alpha-1s (Mus musculus) (UniProt Q02789); experiment: anti-HA co-IP from muscle, MS; CTRL 0
[11] = molecular target: Calcium/calmodulin-dependent protein kinase type II subunit alpha (Mus musculus) (UniProt P11798); experiment: anti-HA co-IP from muscle, MS; CTRL 2
[12] = molecular target: Caveolae-associated protein 1 (Mus musculus) (UniProt O54724); experiment: anti-HA co-IP from muscle, MS; CTRL 2
[13] = molecular target: PDZ and LIM domain protein 5 (Mus musculus) (UniProt Q8CI51); experiment: anti-HA co-IP from muscle, MS; CTRL 2
[14] = molecular target: Phosphorylase b kinase gamma catalytic chain, skeletal muscle/heart isoform (Mus musculus) (UniProt P07934); experiment: anti-HA co-IP from muscle, MS; CTRL 2
[15] = molecular target: Poly(rC)-binding protein 2 (Mus musculus) (UniProt Q61990); experiment: anti-HA co-IP from muscle, MS; CTRL 2
[16] = molecular target: Serine/arginine repetitive matrix protein 2 (Mus musculus) (UniProt Q8BTI8); experiment: anti-HA co-IP from muscle, MS; CTRL 2
[17] = molecular target: Spectrin beta chain, erythrocytic (Mus musculus) (UniProt P15508); experiment: anti-HA co-IP from muscle, MS; CTRL 2
[18] = molecular target: Succinate--CoA ligase [ADP-forming] subunit beta, mitochondrial (Mus musculus) (UniProt Q9Z2I9); experiment: anti-HA co-IP from muscle, MS; CTRL 2
[19] = molecular target: T-complex protein 1 subunit beta (Mus musculus) (UniProt P80314); experiment: anti-HA co-IP from muscle, MS; CTRL 2
[20] = molecular target: Trimeric intracellular cation channel type A (Mus musculus) (UniProt Q3TMP8); experiment: anti-HA co-IP from muscle, MS; CTRL 2
[21] = molecular target: Tripartite motif-containing protein 72 (Mus musculus) (UniProt Q1XH17); experiment: anti-HA co-IP from muscle, MS; CTRL 2
[22] = molecular target: Very-long-chain enoyl-CoA reductase (Mus musculus) (UniProt Q9CY27); experiment: anti-HA co-IP from muscle, MS; CTRL 2
[23] = molecular target: Voltage-dependent L-type calcium channel subunit beta-1 (Mus musculus) (UniProt Q8R3Z5); experiment: anti-HA co-IP from muscle, MS; CTRL 2
[24] = molecular target: 3-ketoacyl-CoA thiolase, mitochondrial (Mus musculus) (UniProt Q8BWT1); experiment: anti-HA co-IP from muscle, MS; CTRL 3
[25] = molecular target: Cytoplasmic dynein 1 heavy chain 1 (Mus musculus) (UniProt Q9JHU4); experiment: anti-HA co-IP from muscle, MS; CTRL 3
[26] = molecular target: Myosin light chain kinase 2, skeletal/cardiac muscle (Mus musculus) (UniProt Q8VCR8); experiment: anti-HA co-IP from muscle, MS; CTRL 3
[27] = molecular target: Nidogen-2 (Mus musculus) (UniProt O88322); experiment: anti-HA co-IP from muscle, MS; CTRL 3
[28] = molecular target: Perilipin-4 (Mus musculus) (UniProt O88492); experiment: anti-HA co-IP from muscle, MS; CTRL 3
[29] = molecular target: Transcription elongation factor A protein 3 (Mus musculus) (UniProt P23881); experiment: anti-HA co-IP from muscle, MS; CTRL 3
[30] = molecular target: Annexin A6 (Mus musculus) (UniProt P14824); experiment: anti-HA co-IP from muscle, MS; CTRL 5
[31] = molecular target: Biglycan (Mus musculus) (UniProt P28653); experiment: anti-HA co-IP from muscle, MS; CTRL 5
[32] = molecular target: Eukaryotic translation initiation factor 5B (Mus musculus) (UniProt Q05D44); experiment: anti-HA co-IP from muscle, MS; CTRL 5
[33] = molecular target: Phosphorylase b kinase regulatory subunit alpha, skeletal muscle isoform (Mus musculus) (UniProt P18826); experiment: anti-HA co-IP from muscle, MS; CTRL 5
[34] = molecular target: Spectrin alpha chain, non-erythrocytic 1 (Mus musculus) (UniProt P16546); experiment: anti-HA co-IP from muscle, MS; CTRL 5
[35] = molecular target: Spectrin beta chain, non-erythrocytic 1 (Mus musculus) (UniProt Q62261); experiment: anti-HA co-IP from muscle, MS; CTRL 5
[36] = molecular target: Striated muscle-specific serine/threonine-protein kinase (Mus musculus) (UniProt Q62407); experiment: anti-HA co-IP from muscle, MS; CTRL 5
[37] = molecular target: Dystrophin (Mus musculus) (UniProt P11531); experiment: anti-HA co-IP from muscle, MS; CTRL 6
[38] = molecular target: Sodium/potassium-transporting ATPase subunit alpha-2 (Mus musculus) (UniProt Q6PIE5); experiment: anti-HA co-IP from muscle, MS; CTRL 6

Chain of Annexin A6 (Mus musculus) (P14824 2-673 limits assumed): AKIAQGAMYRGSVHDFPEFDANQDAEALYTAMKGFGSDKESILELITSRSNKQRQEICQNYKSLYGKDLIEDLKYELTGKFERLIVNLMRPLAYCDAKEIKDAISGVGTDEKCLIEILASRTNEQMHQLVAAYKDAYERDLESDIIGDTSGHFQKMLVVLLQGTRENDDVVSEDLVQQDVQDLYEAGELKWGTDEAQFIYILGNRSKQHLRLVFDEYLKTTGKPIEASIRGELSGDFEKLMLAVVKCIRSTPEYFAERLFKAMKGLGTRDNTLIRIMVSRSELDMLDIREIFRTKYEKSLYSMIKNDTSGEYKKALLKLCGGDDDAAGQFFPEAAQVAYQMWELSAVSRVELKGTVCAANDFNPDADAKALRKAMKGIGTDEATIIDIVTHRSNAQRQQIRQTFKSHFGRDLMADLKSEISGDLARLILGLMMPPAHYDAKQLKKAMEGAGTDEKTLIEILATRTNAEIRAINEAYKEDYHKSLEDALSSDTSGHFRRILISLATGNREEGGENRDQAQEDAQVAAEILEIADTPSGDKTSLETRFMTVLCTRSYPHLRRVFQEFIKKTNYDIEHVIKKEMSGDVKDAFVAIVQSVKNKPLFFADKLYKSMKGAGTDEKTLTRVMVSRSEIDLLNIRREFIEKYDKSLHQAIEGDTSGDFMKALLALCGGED
Chain of Calcium/calmodulin-dependent protein kinase type II subunit alpha (Mus musculus) (P11798 whole entry): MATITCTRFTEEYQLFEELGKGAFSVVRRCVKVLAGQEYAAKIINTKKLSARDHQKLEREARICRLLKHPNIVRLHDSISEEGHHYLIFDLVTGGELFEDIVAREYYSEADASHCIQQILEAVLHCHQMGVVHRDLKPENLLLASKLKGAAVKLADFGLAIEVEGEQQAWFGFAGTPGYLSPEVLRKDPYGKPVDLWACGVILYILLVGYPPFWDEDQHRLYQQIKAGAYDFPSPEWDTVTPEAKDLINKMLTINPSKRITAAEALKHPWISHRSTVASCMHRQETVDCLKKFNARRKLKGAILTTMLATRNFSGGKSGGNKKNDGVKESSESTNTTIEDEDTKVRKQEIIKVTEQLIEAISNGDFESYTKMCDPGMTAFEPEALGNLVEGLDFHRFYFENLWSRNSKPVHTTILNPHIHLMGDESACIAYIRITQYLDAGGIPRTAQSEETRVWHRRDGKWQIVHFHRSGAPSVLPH
Chain of Serine/arginine repetitive matrix protein 2 (Mus musculus) (Q8BTI8 whole entry): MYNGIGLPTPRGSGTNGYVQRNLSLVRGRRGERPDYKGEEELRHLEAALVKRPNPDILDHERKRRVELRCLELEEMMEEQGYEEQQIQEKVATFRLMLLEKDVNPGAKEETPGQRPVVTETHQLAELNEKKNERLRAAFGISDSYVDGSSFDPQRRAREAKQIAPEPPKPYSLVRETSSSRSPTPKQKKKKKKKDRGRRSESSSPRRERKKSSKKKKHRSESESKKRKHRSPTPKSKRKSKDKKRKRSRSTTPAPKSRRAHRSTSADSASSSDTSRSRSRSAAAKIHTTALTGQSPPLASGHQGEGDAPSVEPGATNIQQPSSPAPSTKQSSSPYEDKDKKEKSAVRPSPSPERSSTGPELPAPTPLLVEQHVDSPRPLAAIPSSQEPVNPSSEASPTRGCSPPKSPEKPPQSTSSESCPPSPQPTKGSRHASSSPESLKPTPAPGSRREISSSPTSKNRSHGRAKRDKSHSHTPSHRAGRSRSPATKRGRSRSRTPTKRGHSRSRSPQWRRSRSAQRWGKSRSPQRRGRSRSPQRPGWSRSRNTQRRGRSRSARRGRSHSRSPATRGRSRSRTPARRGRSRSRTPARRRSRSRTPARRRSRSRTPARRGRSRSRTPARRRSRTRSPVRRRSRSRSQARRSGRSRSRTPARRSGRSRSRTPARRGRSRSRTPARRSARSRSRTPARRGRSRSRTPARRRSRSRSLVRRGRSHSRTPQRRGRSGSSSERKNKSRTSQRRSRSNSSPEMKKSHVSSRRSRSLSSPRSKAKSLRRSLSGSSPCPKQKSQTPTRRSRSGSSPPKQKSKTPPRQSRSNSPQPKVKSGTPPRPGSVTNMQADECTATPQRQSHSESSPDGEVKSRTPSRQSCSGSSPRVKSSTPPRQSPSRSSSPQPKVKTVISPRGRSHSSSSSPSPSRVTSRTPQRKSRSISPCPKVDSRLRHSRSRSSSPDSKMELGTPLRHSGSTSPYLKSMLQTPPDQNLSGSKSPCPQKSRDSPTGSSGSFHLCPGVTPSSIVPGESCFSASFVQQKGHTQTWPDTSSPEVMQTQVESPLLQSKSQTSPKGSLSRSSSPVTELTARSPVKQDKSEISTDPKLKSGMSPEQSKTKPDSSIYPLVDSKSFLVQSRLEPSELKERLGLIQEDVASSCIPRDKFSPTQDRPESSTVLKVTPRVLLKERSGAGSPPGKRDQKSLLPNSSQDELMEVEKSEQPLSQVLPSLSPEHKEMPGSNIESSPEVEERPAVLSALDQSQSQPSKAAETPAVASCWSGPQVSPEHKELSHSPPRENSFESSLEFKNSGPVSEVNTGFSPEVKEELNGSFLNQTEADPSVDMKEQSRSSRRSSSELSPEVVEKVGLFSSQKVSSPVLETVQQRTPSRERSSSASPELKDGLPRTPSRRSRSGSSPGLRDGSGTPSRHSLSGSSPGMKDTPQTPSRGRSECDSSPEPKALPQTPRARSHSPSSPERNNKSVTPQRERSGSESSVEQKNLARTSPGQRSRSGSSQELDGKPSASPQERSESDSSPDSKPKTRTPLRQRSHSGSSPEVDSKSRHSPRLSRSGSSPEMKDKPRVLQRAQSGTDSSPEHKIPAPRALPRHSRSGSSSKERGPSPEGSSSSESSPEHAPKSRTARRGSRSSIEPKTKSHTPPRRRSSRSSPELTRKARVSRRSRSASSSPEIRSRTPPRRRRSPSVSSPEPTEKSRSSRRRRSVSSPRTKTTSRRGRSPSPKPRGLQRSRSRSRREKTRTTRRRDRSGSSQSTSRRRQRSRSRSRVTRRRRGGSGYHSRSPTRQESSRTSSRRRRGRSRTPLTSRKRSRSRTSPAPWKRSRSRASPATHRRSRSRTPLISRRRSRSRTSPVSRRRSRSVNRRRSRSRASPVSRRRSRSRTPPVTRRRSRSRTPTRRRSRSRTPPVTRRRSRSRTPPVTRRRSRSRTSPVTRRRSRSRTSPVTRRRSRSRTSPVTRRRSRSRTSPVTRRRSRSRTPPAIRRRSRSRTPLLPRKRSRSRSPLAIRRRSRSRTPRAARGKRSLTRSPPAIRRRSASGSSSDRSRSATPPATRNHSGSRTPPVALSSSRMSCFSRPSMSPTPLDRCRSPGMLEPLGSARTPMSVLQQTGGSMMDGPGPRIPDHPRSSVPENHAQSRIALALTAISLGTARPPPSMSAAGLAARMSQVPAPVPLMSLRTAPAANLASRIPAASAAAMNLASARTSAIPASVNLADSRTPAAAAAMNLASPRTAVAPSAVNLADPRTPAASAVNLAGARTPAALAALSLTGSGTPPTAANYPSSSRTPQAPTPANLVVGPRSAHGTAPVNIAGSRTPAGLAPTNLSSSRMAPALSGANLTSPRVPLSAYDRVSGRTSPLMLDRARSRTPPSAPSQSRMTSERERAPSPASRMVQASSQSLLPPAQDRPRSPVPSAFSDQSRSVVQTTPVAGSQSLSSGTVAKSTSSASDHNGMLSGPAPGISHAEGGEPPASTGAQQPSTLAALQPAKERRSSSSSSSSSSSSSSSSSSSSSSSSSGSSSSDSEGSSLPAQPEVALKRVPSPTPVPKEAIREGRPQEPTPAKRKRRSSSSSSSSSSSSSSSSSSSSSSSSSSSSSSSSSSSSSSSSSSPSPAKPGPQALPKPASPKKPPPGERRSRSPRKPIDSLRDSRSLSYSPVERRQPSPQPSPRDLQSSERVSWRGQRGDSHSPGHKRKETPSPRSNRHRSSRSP
Chain of Caveolae-associated protein 1 (Mus musculus) (O54724 whole entry, the tested form may be a part): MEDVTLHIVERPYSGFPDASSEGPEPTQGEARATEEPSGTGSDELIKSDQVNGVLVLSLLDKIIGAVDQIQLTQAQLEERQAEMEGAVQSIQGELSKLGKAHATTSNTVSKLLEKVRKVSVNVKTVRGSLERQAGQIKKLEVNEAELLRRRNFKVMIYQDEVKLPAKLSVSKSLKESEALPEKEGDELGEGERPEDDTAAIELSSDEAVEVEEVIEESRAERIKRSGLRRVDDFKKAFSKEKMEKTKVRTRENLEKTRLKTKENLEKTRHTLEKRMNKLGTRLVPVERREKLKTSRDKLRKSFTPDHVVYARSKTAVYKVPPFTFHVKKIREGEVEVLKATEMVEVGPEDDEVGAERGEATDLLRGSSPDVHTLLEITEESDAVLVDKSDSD
Chain of Trimeric intracellular cation channel type A (Mus musculus) (Q3TMP8 whole entry): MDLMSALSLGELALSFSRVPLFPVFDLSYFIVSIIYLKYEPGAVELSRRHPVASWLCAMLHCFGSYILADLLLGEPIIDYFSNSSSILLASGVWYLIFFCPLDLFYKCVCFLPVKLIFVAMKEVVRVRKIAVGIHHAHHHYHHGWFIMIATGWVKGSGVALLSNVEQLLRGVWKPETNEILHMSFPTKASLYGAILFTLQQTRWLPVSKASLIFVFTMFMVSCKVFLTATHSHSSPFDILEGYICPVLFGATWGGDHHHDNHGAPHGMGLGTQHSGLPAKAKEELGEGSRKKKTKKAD
Chain of Succinate--CoA ligase [ADP-forming] subunit beta, mitochondrial (Mus musculus) (Q9Z2I9 54-463 limits assumed): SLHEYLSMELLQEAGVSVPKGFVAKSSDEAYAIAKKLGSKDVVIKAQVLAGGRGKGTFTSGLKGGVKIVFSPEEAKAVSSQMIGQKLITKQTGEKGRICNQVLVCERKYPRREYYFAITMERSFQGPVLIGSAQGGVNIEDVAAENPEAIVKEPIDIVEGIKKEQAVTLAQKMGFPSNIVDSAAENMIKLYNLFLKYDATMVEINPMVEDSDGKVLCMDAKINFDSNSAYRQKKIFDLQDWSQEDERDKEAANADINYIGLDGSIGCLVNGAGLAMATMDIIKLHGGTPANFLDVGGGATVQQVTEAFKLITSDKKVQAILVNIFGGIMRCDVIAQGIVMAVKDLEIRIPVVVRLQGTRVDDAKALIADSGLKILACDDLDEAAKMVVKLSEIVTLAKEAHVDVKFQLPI

“human BVES fused with 3xHA tag (from UniProt Q8NE79 1-360)” was tested, and the AAV9-BVES-HA (IP-MS count) [1] was 4, the AAV9-BVES-HA (IP-MS count) [2] was 2 and the AAV9-BVES-HA (IP-MS count) [3] was 3. The AAV9-BVES-HA (IP-MS count) [4] was 11, the AAV9-BVES-HA (IP-MS count) [5] was 2 and the AAV9-BVES-HA (IP-MS count) [6] was 2. The AAV9-BVES-HA (IP-MS count) [7] was 2, the AAV9-BVES-HA (IP-MS count) [8] was 3 and the AAV9-BVES-HA (IP-MS count) [9] was 12. It also gave an AAV9-BVES-HA (IP-MS count) [10] of 13, an AAV9-BVES-HA (IP-MS count) [11] of 11 and an AAV9-BVES-HA (IP-MS count) [12] of 19. It also gave an AAV9-BVES-HA (IP-MS count) [13] of 7, an AAV9-BVES-HA (IP-MS count) [14] of 6 and an AAV9-BVES-HA (IP-MS count) [15] of 6. It also gave an AAV9-BVES-HA (IP-MS count) [16] of 11, an AAV9-BVES-HA (IP-MS count) [17] of 41 and an AAV9-BVES-HA (IP-MS count) [18] of 8. It also gave an AAV9-BVES-HA (IP-MS count) [19] of 6, an AAV9-BVES-HA (IP-MS count) [20] of 7 and an AAV9-BVES-HA (IP-MS count) [21] of 6. It also gave an AAV9-BVES-HA (IP-MS count) [22] of 9, an AAV9-BVES-HA (IP-MS count) [23] of 6 and an AAV9-BVES-HA (IP-MS count) [24] of 9. It also gave an AAV9-BVES-HA (IP-MS count) [25] of 12, an AAV9-BVES-HA (IP-MS count) [26] of 9 and an AAV9-BVES-HA (IP-MS count) [27] of 12. It also gave an AAV9-BVES-HA (IP-MS count) [28] of 11, an AAV9-BVES-HA (IP-MS count) [29] of 12 and an AAV9-BVES-HA (IP-MS count) [30] of 17. For the same substance, the AAV9-BVES-HA (IP-MS count) [31] was 16, the AAV9-BVES-HA (IP-MS count) [32] was 14 and the AAV9-BVES-HA (IP-MS count) [33] was 23. The AAV9-BVES-HA (IP-MS count) [34] was 24, the AAV9-BVES-HA (IP-MS count) [35] was 19 and the AAV9-BVES-HA (IP-MS count) [36] was 16. For the same substance, the AAV9-BVES-HA (IP-MS count) [37] was 77 and the AAV9-BVES-HA (IP-MS count) [38] was 41.
